According to article PMC4208085 (FEBS Open Bio, 2014):

Molecular target: the molecule itself
Test: crystal structure

B1: C-terminal soluble domain of STOPP (stomatin operon partner protein) PH1510 from Pyrococcus horikoshii (domain or fragment, UniProt O59179 371-441, looked up)
chain: KARTGKEEMIGLIGTVVEELNPEGMIKVRGELWKARSKFNGKIEKGEKVRVVDMDGLTLIVVRERKEGGEK
B1: binds.
